Source: US20220048948A1 (REGENTS OF THE UNIVERSITY OF MINNESOTA, published 2022)
No end group written: not given here.

How the values were obtained:
[1] = biological target: CD40 on Rhesus macaque peripheral blood mononuclear cells / B cells (Rhesus macaque, UniProt F6SNI1 21-278); test: cell-based or functional assay
[2] = biological target: T1, FLAG-tagged rhsCD40 (Alexis) (human, UniProt P25942 21-193, limits assumed); test: ELISA, peptide and FLAG-tagged rhsCD40 (1 ug/ml), detected with HRP anti-FLAG antibody, TMB, OD 450 nm
T1 construct: Bought reagent (Alexis); also called recombinant human CD40; human CD40; not shown: FLAG tag
Method: Binding of the identified peptides to CD40 was analyzed by ELISA. Briefly, plates were coated with […] and then incubated with identified peptides and detected using Flag-tagged rhsCD40.
In order to confirm the specificity of the peptides to interfere with CD40:CD154 interaction, the specificity of peptides 1-7 as listed in table 1 to bind to human […] by ELISA was tested. Briefly, 96 well ELISA (Nunc Immunolon) plates were coated with the peptides in carbonate buffer. The wells are washed and probed with FLAG-tagged rhsCD40 (1 μg/ml; Alexis) and developed with HRP conjugated rabbit anti-FLAG antibody. The plates were washed and the enzymatic activity was determined using 3,3′,5,5′-tetramethyl-benzidine substrate for 15 minutes and the reaction was stopped by the addition of 2 M H2SO4, and optical density was measured at 450 nm, with the correction wavelength set at 620 nm.

T1 sequence (P25942 21-193 limits assumed): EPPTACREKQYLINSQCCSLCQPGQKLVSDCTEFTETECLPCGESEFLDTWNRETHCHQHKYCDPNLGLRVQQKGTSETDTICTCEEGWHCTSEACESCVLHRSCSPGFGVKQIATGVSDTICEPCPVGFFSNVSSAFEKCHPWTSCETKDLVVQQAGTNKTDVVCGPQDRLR

Binder	MHC class II expression on B cells after activation with recombinant hCD40L, peptide at 30 µM [1] [% reduction]	binding result [2]
VVQWAEKGFFTMSNN (also: also made with a fluorescent label, dye and site not given here) [Peptide 3]	50	binds
VLQWAERGFYTTSNN (also: also made with a fluorescent label, dye and site not given here) [Peptide 2]	50	binds
VVQWAEKGYYTMSQN (also: also made with a fluorescent label, dye and site not given here) [Peptide 7]	50	binds
VLQWAEKGYYTMSNN (also: also used fluorescently labelled (dye and position not given here), called cyclic, no cyclisation chemistry given, also called control Peptide 1) [Peptide 1 (control CD40-binding peptide)]	50	binds
LVNWADKAFYTTSNN (also: also made with a fluorescent label, dye and site not given here) [Peptide 5]	50	binds
VLNWADKAYFTMSQN (also: also made with a fluorescent label, dye and site not given here) [Peptide 4]	50	binds
LLQWAERGYFMTSNN (also: also made with a fluorescent label, dye and site not given here) [Peptide 6]	50	binds
